Laboratory results taken from patent US20050085420A1, “Method of modulating apoptosis and compositions thereof” (priority 2003, published 2005).

Target: T1, N-terminal HA-tagged VDAC2 (murine, UniProt Q60930 1-295)
T1 construct: also called HA-VDAC2; hemagglutinin (HA)-tagged version of VDAC2; not shown: N-terminal HA tag
T1 sequence (looked up): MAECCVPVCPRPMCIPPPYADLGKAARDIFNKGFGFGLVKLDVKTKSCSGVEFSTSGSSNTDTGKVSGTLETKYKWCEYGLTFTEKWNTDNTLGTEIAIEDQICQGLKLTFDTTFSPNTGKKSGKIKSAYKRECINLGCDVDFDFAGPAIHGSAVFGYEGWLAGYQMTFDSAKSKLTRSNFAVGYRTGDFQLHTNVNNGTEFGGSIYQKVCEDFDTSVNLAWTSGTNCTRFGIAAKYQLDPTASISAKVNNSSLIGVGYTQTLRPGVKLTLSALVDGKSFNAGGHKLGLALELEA
Experiment: anti-HA immunoprecipitation in 1% CHAPS, anti-BID immunoblot
Procedure: The activated form of BID, p15 tBID, was first examined in cells expressing only VDAC2 and not the other isoforms, VDAC1 or VDAC3. Mitochondria isolated from vdac1 -/- , vdac3 -/- mouse fibroblasts with or without retroviral transduction of N-terminal HA-tagged VDAC2 were incubated with in vitro transcribed, translated wild-type or mutant tBID (mIII.4, G94E) protein at 30° C. for 30 min, followed by anti-HA immunoprecipitation in 1% CHAPS buffer.

B1: mutant tBID mIII.4 (G94E) (other, UniProt P70444 60-195, looked up)
chain: GSQASRSFNQGRIEPDSESQEEIIHNIARHLAQIEDEMDHNIQPTLVRQLAAQFMNGSLSEEDKRNCLAKALDEVKTAFPRDMENDKAMLIMTMLLAKKVASHAPSLLRDVFHTTVNFINQNLFSYVRNLVRNEMD
notes: domain: p15 tBID; also called m111.4 mutant; m l 11.4
B1: no binding.
